According to the supplement of paper PMC9170038:

Tested on: MS2 coat protein
Assay: apparent KD of MS2 coat protein; designed switch direction (-1 OFF switch, 1 ON switch): -1; higher = weaker reporter binding
Method in brief: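 Designed RNA switches with common flanks were made on Illumina chips by stalled E. coli RNA polymerase. Titration with SNAP-549-labelled MS2 coat protein doubled from 0.7 or 1.5 nM up to 3 µM. Apparent KD is each design's median over clusters after curve-fitting normalised fluorescence.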

[1] = input ligand: microRNA oligo, concentration not stated
[2] = Eterna round: R95, input ligand: FMN 200 uM
[3] = Eterna round: R95, input ligand: microRNA oligo, concentration not stated
[4] = Eterna round: R95, input ligand: none

Row | Sequence | apparent KD of MS2 coat protein (input ligand: FMN 200 uM) [nM] | apparent KD of MS2 coat protein [1] [nM] | apparent KD of MS2 coat protein (input ligand: none) [nM] | apparent KD of MS2 coat protein [2] [nM] | apparent KD of MS2 coat protein [3] [nM] | apparent KD of MS2 coat protein [4] [nM]
1 | AGCUAGUGCCGAGGAUAUACAUGAGGAUCACCCAUGUAAGCCAGUCGGUUUCUGACUGGCAAUAUGUAGAAGGCGGCGUUGGCA [JL ENG2 1.49] (Eterna round: R96, puzzle: Exclusion NG 2) | 48.2 | 11.3 | 16.6 | – | – | –
2 | AGAGUACAUGAGGAUCACCCAUGUCAGGAUAUGCAGAAGAAGAAGAAGAGAAGAGAGAGCAGAAGGGACAAGAG [Ex 1 M2] (puzzle: Exclusion 1) | – | – | – | 41.1 | 26.2 | 29.4
3 | ACAUGAGGAUCACCCAUGUCUGGCUGGUCUGCUCCGGUUGUUGAGGAUAUAGUCCGGUGUUCGCGCUAGAAGGUGAGGGCUGGA [Aenatbe mod 40] (Eterna round: R96, puzzle: Exclusion NG 3) | 137 | 96.4 | 131 | – | – | –
4 | UAUUAUCAAGCUUGAUCCCACAUGAGGAUCACCCAUGUGCUCGUCUUAUUUCUGUCCUUAUUGUUCUCUCGUCUAAU [JR_STOV1_v2_Sub097] (Eterna round: R97, puzzle: Sensor, turn-off variant 1) | 80.2 | – | 94.1 | – | – | –
5 | UGUGUGAGACAGGAUAUGCCGGAUGUAUUACUGGUAGAAGGGUCUACAUGAGGAUCACCCAUGUGGCCGGCCGG [Ex6 #83] (Eterna round: R97, puzzle: Exclusion 6) | 31.3 | – | 21.1 | – | – | –
6 | AAUUAUUAUUGAGGAUAUGGUAGUGAAACACUACCAGAAGGCGGUAUAAACAUGAGGAUCACCCAUGUGAGCCUGAUGCUUAUG [Ex NG1 #45] (Eterna round: R96, puzzle: Exclusion NG 1) | – | 18.6 | – | – | – | –
7 | GGGUAGUGAGGAUAUCGUUGUUAGGAGGAGAAGGUAGGAGGCGAGAAGGCACAUGAGGAUCACCCAUGUAUGAG [JR_Exclu4_Sub064] (puzzle: Exclusion 4) | – | – | – | – | 26.9 | –
8 | AGCCUACAUGAGGAUCACCCAUGUCAGGAUAUCUCGCGACAUGUCAAGUUCACGUUGCAGAGAAGGGACUCGGG [Ononxe] (Eterna round: R96, puzzle: Exclusion 1) | 108 | 41 | 54.1 | – | – | –
9 | AUGAUAUAACAGGAUAUUUGGCGCGGAUGCAGAGAAGAAGGGUUGACAUGAGGAUCACCCAUGUGAUCCUUCAA [Eternabot (L1) Solution 18] (Eterna round: R97, puzzle: Exclusion 6) | 20.1 | – | 14.3 | – | – | –
10 | AUAGAGUCAGGAUAUACAGGUGGAGGAGAGCAGCGUAAGGAGUAGAAGGGACAUGAGGAUCACCCAUGUAAGUG [JR_Exclu4_Sub060] (puzzle: Exclusion 4) | – | – | – | 52.5 | 55.1 | 81.2
11 | ACAAGCUUGUAAUCAUUUAACAUGAGGAUCACCCAUGUAAAUGGAAGAACCAAUUUGAUAUGAUUUACUCGUCUUAU [JR_STOV1_Sub009] (Eterna round: R97, puzzle: Sensor, turn-off variant 1) | 257 | – | 267 | – | – | –
12 | CUGCUCCGUGUAGGAUAUGCGCGCAACCAACGCGCAGAAGGACAUGAGGAUCACCCAUGUAUGUUAUUAUCACGUGAAGCGUCC [Design 30] (Eterna round: R96, puzzle: Exclusion NG 1) | 56.7 | 19.9 | 18.2 | – | – | –
13 | GUAAUACAUGAGGAUCACCCAUGUUAGGAUAUCUGCAGGACGUCUCCCGUAUAUCCGUAGAGAAGGGACAGUGG [Eternabot (L1) Solution 20] (Eterna round: R97, puzzle: Exclusion 1) | 43 | – | 33.6 | – | – | –
14 | UGUUGUCGCGCAGGAUAUGCAUGAGGAUCACCCAUGCAAUUAGAGUUAACAUGAGGAUCACCCAUGUAGAAGGGCGGGACAACU [pwkr exNG2 2xF5 1xFMN.5] (Eterna round: R96, puzzle: Exclusion NG 2) | 65.1 | 27.6 | 54.2 | – | – | –
15 | UUGUUGUAUGUAGGAUAUGCAUAUUGUUAUUAUGCAGAAGGACAUGAGGAUCACCCAUGUAUAUUAUUAUUAUAUGUUAUAUAU [Title] (Eterna round: R96, puzzle: Exclusion NG 1) | – | 17.9 | – | – | – | –
16 | GACUCGCACUGAGGAUAUCGAAACGAUACGUCGCGAGAAGGCAGAGCGAACAUGAGGAUCACCCAUGUGGGUUCGCCUGAUGUA [Geedinsoma] (Eterna round: R96, puzzle: Exclusion NG 1) | 23.2 | 12.9 | 16.7 | – | – | –
17 | UGAGACUGAGGAUAUACUAGCCCAUAAAGUGGGUUGUGGGUACAUGAGGAUCACCCAUGUAGAAGGCAGCCUCG [Omei Repeat Sequence v4] (Eterna round: R97, puzzle: Exclusion 2) | 516 | – | 75.4 | – | – | –
18 | CAUUAGCAAGCGAGAUCCCACAUGAGGAUCACCCAUGUGCUCGUCUUAUAAGGUACUGUGACGAGAGUCACGGUACC [Mat - Sensor, turn-off var - Eli Mod - D42] (Eterna round: R97, puzzle: Sensor, turn-off variant 1) | 15.2 | – | 16.1 | – | – | –
19 | CUGUACUGAGGAUAUACAUGAGGAUCACCCAUGUGAUUUAGUGCACGCGUACGUGUACGUAGAAGGCAGUACAG [Mat - Exclusion 3 - Eli Mod - D36] (Eterna round: R97, puzzle: Exclusion 3) | 183 | – | 25.2 | – | – | –
20 | AUAAUGUCAGGAUAUACUAAUGAUGAAUGAUCAGACAUUAUGUAGAAGGGACAUGAGGAUCACCCAUGUAAUAU [EX4 #3] (Eterna round: R97, puzzle: Exclusion 4) | 35.5 | – | 29.1 | – | – | –
21 | GGAAAGUGAGGAUAUGGUAAAGUAAGUAUGUAGUAAGUAAUCCAGAAGGCACAUGAGGAUCACCCAUGUAAAGG [Mat - Exclusion 4 - D101] (puzzle: Exclusion 4) | – | – | – | 24.8 | 25.4 | 26.8
22 | ACGUUAGGAGGAUAUAGAAUUUUAGACAUGAGGAUCACCCAUGUCCUAUGUCAUGAGAGGCUAGAAGGCCUAGUUU [Eternabot (L2) Solution 51] (Eterna round: R97, puzzle: Exclusion 5) | 142 | – | 29.4 | – | – | –
23 | UAUAUAUAGUAAGGAUAUGUAUAUAUUUUACAAACAGAAGGUACUGACAUGAGGAUCACCCAUGUUUUAGUGUGGGCAUGUAGA [JMF's solution 68] (Eterna round: R96, puzzle: Exclusion NG 1) | – | 43.3 | – | – | – | –
24 | CAGUACUGAGGAUAUACAUGAGGAUCACCCAUGUGUGUGCGUUUUGUAUGAAUGUUAUGUAGAAGGCGGUGCUG [JR_Ex3_Sub035] (Eterna round: R97, puzzle: Exclusion 3) | 201 | – | 39.1 | – | – | –
25 | AAUAACUGAGGAUAUACUAAAAUAUGAAUAAAAUAAAUAAAACAUGAGGAUCACCCAUGUAGAAGGCAGAAUAA [JMF's Not so obvious solution 8] (puzzle: Exclusion 2) | – | – | – | 21.4 | 23.3 | 21.5
